The record followed here is US20220041746A1 (Sanofi, published 2022).

For this assay, the target named is human CD38 (Cambridge Biologics LLC Cat #03-01-0369) (human, UniProt P28907 43-300). In words: ELISA on coated hCD38-His. On the procedure:
The binding properties of the purified antibodies were analyzed either using ELISA or SPR methods. For ELISA, corresponding antigens for each binding site in the trispecific binding protein were used to coat a 96-well Immuno Plate (Nunc 439454, Thermo Fisher Scientific) overnight at 4° C. using 2 μg/ml each antigen m PBS(pH7.4). The coated plate was blocked using 5% skim milk 12% BSA in PBS for one hour at RT, followed by washing with PBS+[…] three times (Aqua Max 400, Molecular Devices). Serial dilution of antibodies (trispecific and control Abs) were prepared and added onto the ELISA plates (100 μl/well in duplicate), incubated at RT for one hour, followed by washing 5 times with PBS+0.25% Tween 20.
The reaction was terminated by adding 50 μl 1M H₂SO₄, and OD₄₅₀ was measured using SpectraMax M5 (Molecular Devices) and analyzed using SoltMax Pro6.3 software (Molecular Devices). The final data was transferred to GraphPad Prism software (GraphPad Software, CA. USA), and plotted as shown. EC50 was calculated using the same software.

B1: mAb2xCD28supxCD3mid IgG4 FALA (other)
heavy 1: QVQLVQSGAEVVKPGASVKVSCKASGYTFTSYYIHWVRQAPGQGLEWIGSIYPGNVNTNYAQKFQGRATLTVDTSISTAYMELSRLRSDDTAVYYCTRSHYGLDWNFDVWGKGTTVTVSSSQVQLVESGGGVVQPGRSLRLSCAASGFTFTKAWMHWVRQAPGKQLEWVAQIKDKSNSYATYYADSVKGRFTISRDDSKNTLYLQMNSLRAEDTAVYYCRGVYYALSPFDYWGQGTLVTVSSRTASTKGPSVFPLAPCSRSTSESTAALGCLVKDYFPEPVTVSWNSGALTSGVHTFPAVLQSSGLYSLSSVVTVPSSSLGTKTYTCNVDHKPSNTKVDKRVESKYGPPCPPCPAPEAAGGPSVFLFPPKPKDTLMISRTPEVTCVVVDVSQEDPEVQFNWYVDGVEVHNAKTKPREEQFNSTYRVVSVLTVLHQDWLNGKEYKCKVSNKGLPSSIEKTISKAKGQPREPQVCTLPPSQEEMTKNQVSLSCAVKGFYPSDIAVEWESNGQPENNYKTTPPVLDSDGSFFLVSKLTVDKSRWQEGNVFSCSVMHEALHNHYTQKSLSLSLG
light 1: DIVMTQTPLSLSVTPGQPASISCKSSQSLVHNNANTYLSWYLQKPGQSPQSLIYKVSNRFSGVPDRFSGSGSGTDFTLKISRVEAEDVGVYYCGQGTQYPFTFGSGTKVEIKGQPKAAPDIQMTQSPSSLSASVGDRVTITCQASQNIYVWLNWYQQKPGKAPKLLIYKASNLHTGVPSRFSGSGSGTDFTLTISSLQPEDIATYYCQQGQTYPYTFGQGTKLEIKTKGPSRTVAAPSVFIFPPSDEQLKSGTASVVCLLNNFYPREAKVQWKVDNALQSGNSQESVTEQDSKDSTYSLSSTLTLSKADYEKHKVYACEVTHQGLSSPVTKSFNRGEC
heavy 2: QVQLVQSGAEVVKPGASVKVSCKASGYTFTSYAMHWVKEAPGQRLEWIGYIYPGQGGTNYNQKFQGRATLTADTSASTAYMELSSLRSEDTAVYFCARTGGLRRAYFTYWGQGTLVTVSSASTKGPSVFPLAPCSRSTSESTAALGCLVKDYFPEPVTVSWNSGALTSGVHTFPAVLQSSGLYSLSSVVTVPSSSLGTKTYTCNVDHKPSNTKVDKRVESKYGPPCPPCPAPEAAGGPSVFLFPPKPKDTLMISRTPEVTCVVVDVSQEDPEVQFNWYVDGVEVHNAKTKPREEQFNSTYRVVSVLTVLHQDWLNGKEYKCKVSNKGLPSSIEKTISKAKGQPREPQVYTLPPCQEEMTKNQVSLWCLVKGFYPSDIAVEWESNGQPENNYKTTPPVLDSDGSFFLYSKLTVDKSRWQEGNVFSCSVMHEALHNHYTQKSLSLSLG
light 2: DIVLTQSPATLSLSPGERATISCRASQSVSSYGQGFMHWYQQKPGQPPRLLIYGASSRATGIPARFSGSGSGTDFTLTISPLEPEDFAVYYCQQNKEDPWTFGGGTKLEIKRTVAAPSVFIFPPSDEQLKSGTASVVCLLNNFYPREAKVQWKVDNALQSGNSQESVTEQDSKDSTYSLSSTLTLSKADYEKHKVYACEVTHQGLSSPVTKSFNRGEC
notes: also called CD38VH1×CD28sup×CD3mid IgG4 FALA
On to B1, for which the binding result is given as “binds”.
